The source of these data is patent EP2226633A1 (Charité - Universitätsmedizin Berlin, dated 2010).

In assay [1] the target is iodinated murine LIF (125I-mLIF) (mouse, UniProt P09056 24-203). The experiment in a line: radioligand binding on transfected Ba/F3 cells.
A further assay concerns the target murine LIF, unlabelled (mouse, UniProt P09056 24-203). In words: displacement of 125I-mLIF from Ba/F3 cells transfected with LIFRα and gp130.
Assay [2] concerns the target T1, human LIFRα from HEK 293 cell extracts (human, UniProt P42702 45-1097).
T1 construct: Endogenous protein from crude cell extract; also called hLIFRα
T1 sequence (looked up): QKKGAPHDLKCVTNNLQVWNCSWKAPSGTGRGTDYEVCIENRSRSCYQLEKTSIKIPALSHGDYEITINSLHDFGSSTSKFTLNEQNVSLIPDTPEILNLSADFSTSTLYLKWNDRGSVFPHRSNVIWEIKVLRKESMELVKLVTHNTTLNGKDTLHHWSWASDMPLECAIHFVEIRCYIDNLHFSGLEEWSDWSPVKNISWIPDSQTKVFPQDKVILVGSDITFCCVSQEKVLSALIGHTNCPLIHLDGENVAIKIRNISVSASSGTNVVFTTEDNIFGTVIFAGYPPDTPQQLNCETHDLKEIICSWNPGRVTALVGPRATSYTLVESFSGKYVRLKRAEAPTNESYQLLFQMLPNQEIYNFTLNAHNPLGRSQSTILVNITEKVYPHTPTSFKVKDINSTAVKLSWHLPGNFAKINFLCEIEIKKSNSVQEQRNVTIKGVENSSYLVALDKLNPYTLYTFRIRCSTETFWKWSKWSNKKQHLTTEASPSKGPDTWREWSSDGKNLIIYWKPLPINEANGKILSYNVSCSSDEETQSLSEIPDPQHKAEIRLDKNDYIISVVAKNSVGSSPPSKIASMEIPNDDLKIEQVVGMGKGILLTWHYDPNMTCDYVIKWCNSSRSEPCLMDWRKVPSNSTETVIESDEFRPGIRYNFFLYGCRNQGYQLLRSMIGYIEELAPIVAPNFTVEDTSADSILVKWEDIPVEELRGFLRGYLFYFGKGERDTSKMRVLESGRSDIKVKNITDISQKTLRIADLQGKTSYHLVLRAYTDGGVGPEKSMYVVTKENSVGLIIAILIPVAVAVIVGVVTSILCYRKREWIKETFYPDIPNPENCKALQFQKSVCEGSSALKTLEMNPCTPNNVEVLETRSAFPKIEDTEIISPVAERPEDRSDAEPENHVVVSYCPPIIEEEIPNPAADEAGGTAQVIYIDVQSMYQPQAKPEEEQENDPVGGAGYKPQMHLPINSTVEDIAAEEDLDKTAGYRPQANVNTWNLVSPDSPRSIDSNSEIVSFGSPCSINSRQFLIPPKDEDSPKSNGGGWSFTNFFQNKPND
The experiment in a line: GST pull-down, HEK cell extracts as prey, anti-LIFR Western blot. (Immunoblotting shows a protein as a band on a membrane.)

Assay [3] deals with T2, V5-His-tagged murine soluble LIFR, secreted by HEK 293 cells (mouse, UniProt P42703-2 44-719, limits assumed).
T2 construct: Used as culture supernatant; also called msLIFR; murine soluble LIFRα; not shown: V5-His tag
T2 sequence (looked up): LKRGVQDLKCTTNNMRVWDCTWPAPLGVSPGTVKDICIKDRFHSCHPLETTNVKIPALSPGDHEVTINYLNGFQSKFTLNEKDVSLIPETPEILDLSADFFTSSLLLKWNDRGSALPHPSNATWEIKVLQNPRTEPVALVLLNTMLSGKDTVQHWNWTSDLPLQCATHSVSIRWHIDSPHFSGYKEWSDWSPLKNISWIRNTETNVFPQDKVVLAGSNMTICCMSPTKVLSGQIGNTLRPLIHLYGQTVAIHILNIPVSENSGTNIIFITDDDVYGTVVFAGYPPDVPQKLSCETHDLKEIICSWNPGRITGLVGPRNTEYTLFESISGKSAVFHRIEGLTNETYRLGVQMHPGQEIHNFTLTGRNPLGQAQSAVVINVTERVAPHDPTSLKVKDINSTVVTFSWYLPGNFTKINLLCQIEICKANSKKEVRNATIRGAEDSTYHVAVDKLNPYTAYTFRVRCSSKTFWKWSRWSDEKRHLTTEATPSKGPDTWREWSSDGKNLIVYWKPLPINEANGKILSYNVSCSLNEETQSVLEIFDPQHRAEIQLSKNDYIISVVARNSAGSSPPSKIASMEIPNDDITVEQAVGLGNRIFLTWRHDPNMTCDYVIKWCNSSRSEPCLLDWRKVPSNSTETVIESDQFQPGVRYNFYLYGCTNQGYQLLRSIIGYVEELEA
In words: GST pull-down, HEK supernatant with msLIFR as prey, anti-V5 Western blot.

B1: heterodimeric LIF receptor (murine gp130 and LIFRα) on transiently transfected Ba/F3 cells (receptor)
chain 1: QLLEPCGYIYPEFPVVQRGSNFTAICVLKEACLQHYYVNASYIVWKTNHAAVPREQVTVINRTTSSVTFTDVVLPSVQLTCNILSFGQIEQNVYGVTMLSGFPPDKPTNLTCIVNEGKNMLCQWDPGRETYLETNYTLKSEWATEKFPDCQSKHGTSCMVSYMPTYYVNIEVWVEAENALGKVSSESINFDPVDKVKPTPPYNLSVTNSEELSSILKLSWVSSGLGGLLDLKSDIQYRTKDASTWIQVPLEDTMSPRTSFTVQDLKPFTEYVFRIRSIKDSGKGYWSDWSEEASGTTYEDRPSRPPSFWYKTNPSHGQEYRSVRLIWKALPLSEANGKILDYEVILTQSKSVSQTYTVTGTELTVNLTNDRYVASLAARNKVGKSAAAVLTIPSPHVTAAYSVVNLKAFPKDNLLWVEWTPPPKPVSKYILEWCVLSENAPCVEDWQQEDATVNRTHLRGRLLESKCYQITVTPVFATGPGGSESLKAYLKQAAPARGPTVRTKKVGKNEAVLAWDQIPVDDQNGFIRNYSISYRTSVGKEMVVHVDSSHTEYTLSSLSSDTLYMVRMAAYTDEGGKDGPEFTFTTPKFAQGEIEAIVVPVCLAFLLTTLLGVLFCFNKRDLIKKHIWPNVPDPSKSHIAQWSPHTPPRHNFNSKDQMYSDGNFTDVSVVEIEANNKKPCPDDLKSVDLFKKEKVSTEGHSSGIGGSSCMSSSRPSISSNEENESAQSTASTVQYSTVVHSGYRHQVPSVQVFSRSESTQPLLDSEERPEDLQLVDSVDGGDEILPRQPYFKQNCSQPEACPEISHFERSNQVLSGNEEDFVRLKQQQVSDHISQPYGSEQRRLFQEGSTADALGTGADGQMERFESVGMETTIDEEIPKSYLPQTVRQGGYMPQ
chain 2: LKRGVQDLKCTTNNMRVWDCTWPAPLGVSPGTVKDICIKDRFHSCHPLETTNVKIPALSPGDHEVTINYLNGFQSKFTLNEKDVSLIPETPEILDLSADFFTSSLLLKWNDRGSALPHPSNATWEIKVLQNPRTEPVALVLLNTMLSGKDTVQHWNWTSDLPLQCATHSVSIRWHIDSPHFSGYKEWSDWSPLKNISWIRNTETNVFPQDKVVLAGSNMTICCMSPTKVLSGQIGNTLRPLIHLYGQTVAIHILNIPVSENSGTNIIFITDDDVYGTVVFAGYPPDVPQKLSCETHDLKEIICSWNPGRITGLVGPRNTEYTLFESISGKSAVFHRIEGLTNETYRLGVQMHPGQEIHNFTLTGRNPLGQAQSAVVINVTERVAPHDPTSLKVKDINSTVVTFSWYLPGNFTKINLLCQIEICKANSKKEVRNATIRGAEDSTYHVAVDKLNPYTAYTFRVRCSSKTFWKWSRWSDEKRHLTTEATPSKGPDTWREWSSDGKNLIVYWKPLPINEANGKILSYNVSCSLNEETQSVLEIFDPQHRAEIQLSKNDYIISVVARNSAGSSPPSKIASMEIPNDDITVEQAVGLGNRIFLTWRHDPNMTCDYVIKWCNSSRSEPCLLDWRKVPSNSTETVIESDQFQPGVRYNFYLYGCTNQGYQLLRSIIGYVEELAPIVAPNFTVEDTSADSILVKWDDIPVEELRGFLRGYLFYFQKGERDTPKTRSLEPHHSDIKLKNITDISQKTLRIADLQGKTSYHLVLRAYTHGGLGPEKSMFVVTKENSVGLIIAILIPVAVAVIVGVVTSILCYRKREWIKETFYPDIPNPENCKALQFQKSVCEGSNALKTLEMNPCTPNNVEVLESRSIVPKIEDTEIISPVAERPGERSEVDPENHVVVSYCPPIIEEEITNPAADEVGGASQVVYIDVQSMYQPQAKAEEEQDVDPVVVAGYKPQMRLPISPAVEDTAAEDEEGKTAGYRPQANVNTWNLVSPDSPRSTDSNNEVVSFGSPCSINSRQFLIPPKDEDSPKSNGGGWSFTNFFQNKPND
notes: whole, on cells; Also used here for the endogenous LIFR of murine M1 cells in the proliferation assay; also called classical LIFR; LIFRα/gp130
As to B1, the binding result in assay [1] was “binds”; in the assay with murine LIF, unlabelled it was “binds”.

B2: GST fusion protein of mature murine EPO, expressed in E. coli (ligand, mouse, UniProt P07321 27-192, looked up)
chain: APPRLICDSRVLERYILEAKEAENVTMGCAEGPRLSENITVPDTKVNFYAWKRMEVEEQAIEVWQGLSLLSEAILQAQALLANSSQPPETLQLHIDKAISGLRSLTSLLRVLGAQKELMSPPDTTPPAPLRTLTVDTFCKLFRVYANFLRGKLKLYTGEVCRRGDR
notes: mature; also called GST-matmEPO; matmE; not shown: N-terminal GST tag from pGEX-6P-1
B2: the binding result in assay [2] and in assay [3] was “no binding” in each case.
